The source of these data is article PMC1361355 (PLoS Pathogens, 2006).

For experiment [1], the target named is T1, NiV-G-Fc, a fusion construct between the ectodomain of NiV-G and the Fc region of human IgG1 (Nipah virus, UniProt Q9IH62 71-602).
T1 sequence: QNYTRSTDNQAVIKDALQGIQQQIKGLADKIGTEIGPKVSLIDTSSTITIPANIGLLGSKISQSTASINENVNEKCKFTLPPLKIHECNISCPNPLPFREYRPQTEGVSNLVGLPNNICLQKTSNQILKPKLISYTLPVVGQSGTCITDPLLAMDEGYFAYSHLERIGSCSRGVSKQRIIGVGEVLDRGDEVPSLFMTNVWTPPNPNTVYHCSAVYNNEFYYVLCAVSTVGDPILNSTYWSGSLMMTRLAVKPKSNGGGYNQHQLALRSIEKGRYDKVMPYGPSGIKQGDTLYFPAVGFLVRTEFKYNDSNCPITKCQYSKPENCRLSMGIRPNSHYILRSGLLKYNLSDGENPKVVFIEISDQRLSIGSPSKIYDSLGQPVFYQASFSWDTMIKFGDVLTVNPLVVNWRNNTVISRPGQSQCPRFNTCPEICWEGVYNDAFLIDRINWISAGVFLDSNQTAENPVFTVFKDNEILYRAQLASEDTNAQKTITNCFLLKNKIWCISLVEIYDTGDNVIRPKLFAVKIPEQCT
The experiment can be described thus: flow cytometry on cells. The following applies: one partner purified.

Experiment [2] deals with T1, NiV-G-Fc, a fusion construct between …. The experiment can be described thus: SPR; BIAcore 3000; […]; 1:1 Langmuir model. The following applies: both partners purified. A general note: SPR reads the build-up and loss of mass on a sensor chip optically.
Another experiment concerns the target T2, EphB4-Fc (UniProt P54760 16-539).
T2 sequence (looked up): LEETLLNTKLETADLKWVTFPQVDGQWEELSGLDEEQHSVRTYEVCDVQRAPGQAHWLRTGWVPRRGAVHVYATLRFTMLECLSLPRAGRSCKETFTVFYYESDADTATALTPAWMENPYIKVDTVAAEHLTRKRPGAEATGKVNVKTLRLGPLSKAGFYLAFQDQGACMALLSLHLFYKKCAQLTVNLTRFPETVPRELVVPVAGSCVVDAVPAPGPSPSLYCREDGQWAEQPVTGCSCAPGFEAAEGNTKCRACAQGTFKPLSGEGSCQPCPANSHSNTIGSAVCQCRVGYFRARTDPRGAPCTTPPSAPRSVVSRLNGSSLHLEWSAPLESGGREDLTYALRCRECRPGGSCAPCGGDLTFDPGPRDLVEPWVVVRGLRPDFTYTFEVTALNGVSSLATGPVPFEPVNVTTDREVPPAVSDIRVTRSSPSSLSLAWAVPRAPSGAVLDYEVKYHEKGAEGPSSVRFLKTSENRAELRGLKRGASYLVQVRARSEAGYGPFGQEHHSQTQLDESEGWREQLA
As to the kind of experiment: SPR; unpublished data: BIAcore control, EphB4-Fc binding to ephrinB2-Fc; who was immobilised is not stated. The note with it: both partners purified.

B1: human ephrinB3 stably expressed on CHO-pgsA745 cells (CHO-B3) (natural protein, UniProt Q15768 28-340, looked up)
chain: LSLEPVYWNSANKRFQAEGGYVLYPQIGDRLDLLCPRARPPGPHSSPNYEFYKLYLVGGAQGRRCEAPPAPNLLLTCDRPDLDLRFTIKFQEYSPNLWGHEFRSHHDYYIIATSDGTREGLESLQGGVCLTRGMKVLLRVGQSPRGGAVPRKPVSEMPMERDRGAAHSLEPGKENLPGDPTSNATSRGAEGPLPPPSMPAVAGAAGGLALLLLGVAGAGGAMCWRRRRAKPSESRHPGPGSFGRGGSLGLGGGGGMGPREAEPGELGIALRGGGAADPPFCPHYEKVSGDYGHPVYIVQDGPPQSPPNIYYKV
notes: also called cell surface ephrinB3
A word on the Kd: it is the constant that tells how readily two partners part at equilibrium. In experiment [1], B1 gave a Kd of 0.58 nM.

B2: ephrinB2-Fc (soluble Fc-fusion ephrin protein, purchased) (Fc fusion)
chain: RSIVLEPIYWNSSNSKFLPGQGLVLYPQIGDKLDIICPKVDSKTVGQYEYYKVYMVDKDQADRCTIKKENTPLLNCARPDQDVKFTIKFQEFSPNLWGLEFQKNKDYYIISTSNGSLEGLDNQEGGVCQTRAMKILMKVGQDASSAGSARNHGPTRRPELEAGTNGRSSTTSPFVKPNPGSSTDGNSAGHSGNNLLGSEVA
Broadly, the koff is the rate constant with which the complex falls apart. A higher koff goes with fast dissociation. In experiment [2], B2 came in with a koff of 0.000106 s⁻¹.

B3: ephrinB2-Fc (soluble Fc-fusion ephrin protein, purchased) (Fc fusion)
chain: B2 chain
modifications: Ectodomain only. The human IgG1 Fc carrier, which makes the fusion a disulfide-linked dimer, is left out. Species is inferred: the R&D Systems ephrin-B2-Fc of that period was recalled as the mouse …
Consider B3, for which, in the experiment with EphB4-Fc, the Kd turned out to be 0.37 nM.

B4: ephrinB3-Fc (soluble Fc-fusion ephrin protein, purchased) (Fc fusion)
chain: LSLEPVYWNSANKRFQAEGGYVLYPQIGDRLDLLCPRARPPGPHSSPNYEFYKLYLVGGAQGRRCEAPPAPNLLLTCDRPDLDLRFTIKFQEYSPNLWGHEFRSHHDYYIIATSDGTREGLESLQGGVCLTRGMKVLLRVGQSPRGGAVPRKPVSEMPMERDRGAAHSLEPGKENLPGDPTSNATSRGAEGPLPPPSMP
notes: source: bought: R & D Systems
On to B4, for which the koff in experiment [2] was 0.00194 s⁻¹.
